Assay results taken from patent US20100272723A1 (Xencor, published 2010).

T1: human CD19 (human, UniProt P15391 20-556)
T1 construct: also called B-cell surface antigen B4; B-cell antigen CD19
T1 sequence: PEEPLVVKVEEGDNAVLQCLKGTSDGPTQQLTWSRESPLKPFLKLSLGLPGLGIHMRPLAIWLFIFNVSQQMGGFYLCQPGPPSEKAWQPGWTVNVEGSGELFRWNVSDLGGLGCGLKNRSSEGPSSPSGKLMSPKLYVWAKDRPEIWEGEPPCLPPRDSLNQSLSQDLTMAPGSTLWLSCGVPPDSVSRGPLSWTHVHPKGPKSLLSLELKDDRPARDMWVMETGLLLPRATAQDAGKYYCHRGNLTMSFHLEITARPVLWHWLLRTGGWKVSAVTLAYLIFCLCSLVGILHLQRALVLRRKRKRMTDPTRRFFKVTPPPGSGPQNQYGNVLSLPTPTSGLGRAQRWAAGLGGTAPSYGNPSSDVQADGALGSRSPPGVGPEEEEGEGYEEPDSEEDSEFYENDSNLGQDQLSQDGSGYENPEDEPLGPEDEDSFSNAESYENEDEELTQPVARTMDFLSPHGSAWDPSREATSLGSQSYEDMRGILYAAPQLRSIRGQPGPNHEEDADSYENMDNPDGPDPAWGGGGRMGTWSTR

B1: H1 / L1.54 (antibody, V domains shown)
VH: EVQLVESGGGLVKPGGSLKLSCAASGYTFTSYVMHWVRQAPGKGLEWIGYINPYNDGTKYNEKFQGRVTISSDKSISTAYMELSSLRSEDTAMYYCARGTYYYGSRVFDYWGQGTLVTVSS
VL: DIVMTQSPATLSLSPGERATLSCRSSKSLLNSNGNTYLYWFQQKPGQSPQLLIYRMSGLASGVPDRFSGSGSGTEFTLTISSLEPEDFAVYYCMQHLEYPFTFGAGTKLEIK
notes: vs H1L1 (Kabat): VL N53G; also called 4G7 H1_L1.54
B2: H1.201 / L1.163 (antibody, V domains shown)
VH: EVQLVESGGGLVKPGGSLKLSCAASGYTFTSYVMHWVRQAPGKGLEWIGYINPYNSGTKYNEKFQGRVTISSDKSISTAYMELSSLRSEDTAMYYCARGTYYYGTRVFDYWGQGTLVTVSS
VL: DIVMTQSPATLSLSPGERATLSCRSSKSLQNANSNTYLYWFQQKPGQSPQLLIYRMSNLNSGVPDRFSGSGSGTEFTLTISSLEPEDFAVYYCMQHLEYPITFGAGTKLEIK
notes: vs H1L1 (Kabat): VH D55S/S100cT; VL L27cQ/S27eA/G29S/A55N/F96I; also called 4G7 H1.201_L1.163
B3: H1 / L1.92 (antibody, V domains shown)
VH: EVQLVESGGGLVKPGGSLKLSCAASGYTFTSYVMHWVRQAPGKGLEWIGYINPYNDGTKYNEKFQGRVTISSDKSISTAYMELSSLRSEDTAMYYCARGTYYYGSRVFDYWGQGTLVTVSS
VL: DIVMTQSPATLSLSPGERATLSCRSSKSLLNSNGNTYLYWFQQKPGQSPQLLIYRMSNLLSGVPDRFSGSGSGTEFTLTISSLEPEDFAVYYCMQHLEYPFTFGAGTKLEIK
notes: vs H1L1 (Kabat): VL A55L; also called 4G7 H1_L1.92
B4: H1.191 / L1.163 (antibody, V domains shown)
VH: EVQLVESGGGLVKPGGSLKLSCAASGYTFTSYVMHWVRQAPGKGLEWIGYINPYNDGTEYNEKFQGRVTISSDKSISTAYMELSSLRSEDTAMYYCARGTYYYGTRVFDYWGQGTLVTVSS
VL: DIVMTQSPATLSLSPGERATLSCRSSKSLQNANSNTYLYWFQQKPGQSPQLLIYRMSNLNSGVPDRFSGSGSGTEFTLTISSLEPEDFAVYYCMQHLEYPITFGAGTKLEIK
notes: vs H1L1 (Kabat): VH K58E/S100cT; VL L27cQ/S27eA/G29S/A55N/F96I; also called 4G7 H1.191_L1.163
B5: H1 / L1.55 (antibody, V domains shown)
VH: EVQLVESGGGLVKPGGSLKLSCAASGYTFTSYVMHWVRQAPGKGLEWIGYINPYNDGTKYNEKFQGRVTISSDKSISTAYMELSSLRSEDTAMYYCARGTYYYGSRVFDYWGQGTLVTVSS
VL: DIVMTQSPATLSLSPGERATLSCRSSKSLLNSNGNTYLYWFQQKPGQSPQLLIYRMSYLASGVPDRFSGSGSGTEFTLTISSLEPEDFAVYYCMQHLEYPFTFGAGTKLEIK
notes: vs H1L1 (Kabat): VL N53Y; also called 4G7 H1_L1.55
B6: H1 / L1.64 (antibody, V domains shown)
VH: EVQLVESGGGLVKPGGSLKLSCAASGYTFTSYVMHWVRQAPGKGLEWIGYINPYNDGTKYNEKFQGRVTISSDKSISTAYMELSSLRSEDTAMYYCARGTYYYGSRVFDYWGQGTLVTVSS
VL: DIVMTQSPATLSLSPGERATLSCRSSKSLLNSNGNTYLYWFQQKPGQSPQLLIYRMSNLASGVPDRFSGSGSGTEFTLTISSLEPEDFAVYYCMQHLEYPITFGAGTKLEIK
notes: vs H1L1 (Kabat): VL F96I; also called 4G7 H1_L1.64
B7: H1.52 / L1.163 (antibody, V domains shown)
VH: EVQLVESGGGLVKPGGSLKLSCAASGYTFTSYVMHWVRQAPGKGLEWIGYINPYNDGTKYNEKFQGRVTISSDKSISTAYMELSSLRSEDTAMYYCARGTYYYGTRVFDYWGQGTLVTVSS
VL: DIVMTQSPATLSLSPGERATLSCRSSKSLQNANSNTYLYWFQQKPGQSPQLLIYRMSNLNSGVPDRFSGSGSGTEFTLTISSLEPEDFAVYYCMQHLEYPITFGAGTKLEIK
notes: vs H1L1 (Kabat): VH S100cT; VL L27cQ/S27eA/G29S/A55N/F96I; also called 4G7 H1.52_L1.163
B8: H1 / L1.67 (antibody, V domains shown)
VH: EVQLVESGGGLVKPGGSLKLSCAASGYTFTSYVMHWVRQAPGKGLEWIGYINPYNDGTKYNEKFQGRVTISSDKSISTAYMELSSLRSEDTAMYYCARGTYYYGSRVFDYWGQGTLVTVSS
VL: DIVMTQSPATLSLSPGERATLSCRSSKSLLNSNGNTYLYWFQQKPGQSPQLLIYRMSNLASGVPDRFSGSGSGTEFTLTISSLEPEDFAVYYCMQHLEYPVTFGAGTKLEIK
notes: vs H1L1 (Kabat): VL F96V; also called 4G7 H1_L1.67
B9: H1.52 / L1.161 (antibody, V domains shown)
VH: EVQLVESGGGLVKPGGSLKLSCAASGYTFTSYVMHWVRQAPGKGLEWIGYINPYNDGTKYNEKFQGRVTISSDKSISTAYMELSSLRSEDTAMYYCARGTYYYGTRVFDYWGQGTLVTVSS
VL: DIVMTQSPATLSLSPGERATLSCRSSKSLQNVNSNTYLYWFQQKPGQSPQLLIYRMSNLNSGVPDRFSGSGSGTEFTLTISSLEPEDFAVYYCMQHLEYPITFGAGTKLEIK
notes: vs H1L1 (Kabat): VH S100cT; VL L27cQ/S27eV/G29S/A55N/F96I; also called 4G7 H1.52_L1.161
B10: H1.201 / L1.162 (antibody, V domains shown)
VH: EVQLVESGGGLVKPGGSLKLSCAASGYTFTSYVMHWVRQAPGKGLEWIGYINPYNSGTKYNEKFQGRVTISSDKSISTAYMELSSLRSEDTAMYYCARGTYYYGTRVFDYWGQGTLVTVSS
VL: DIVMTQSPATLSLSPGERATLSCRSSKSLQNANANTYLYWFQQKPGQSPQLLIYRMSNLNSGVPDRFSGSGSGTEFTLTISSLEPEDFAVYYCMQHLEYPITFGAGTKLEIK
notes: vs H1L1 (Kabat): VH D55S/S100cT; VL L27cQ/S27eA/G29A/A55N/F96I; also called 4G7 H1.201_L1.162
B11: H1 / L1.96 (antibody, V domains shown)
VH: EVQLVESGGGLVKPGGSLKLSCAASGYTFTSYVMHWVRQAPGKGLEWIGYINPYNDGTKYNEKFQGRVTISSDKSISTAYMELSSLRSEDTAMYYCARGTYYYGSRVFDYWGQGTLVTVSS
VL: DIVMTQSPATLSLSPGERATLSCRSSKSLLNSNGNTYLYWFQQKPGQSPQLLIYRMSNLNSGVPDRFSGSGSGTEFTLTISSLEPEDFAVYYCMQHLEYPFTFGAGTKLEIK
notes: vs H1L1 (Kabat): VL A55N; also called 4G7 H1_L1.96
B12: H1.52 / L1.162 (antibody, V domains shown)
VH: EVQLVESGGGLVKPGGSLKLSCAASGYTFTSYVMHWVRQAPGKGLEWIGYINPYNDGTKYNEKFQGRVTISSDKSISTAYMELSSLRSEDTAMYYCARGTYYYGTRVFDYWGQGTLVTVSS
VL: DIVMTQSPATLSLSPGERATLSCRSSKSLQNANANTYLYWFQQKPGQSPQLLIYRMSNLNSGVPDRFSGSGSGTEFTLTISSLEPEDFAVYYCMQHLEYPITFGAGTKLEIK
notes: vs H1L1 (Kabat): VH S100cT; VL L27cQ/S27eA/G29A/A55N/F96I; also called 4G7 H1.52_L1.162
B13: H1 / L1.80 (antibody, V domains shown)
VH: EVQLVESGGGLVKPGGSLKLSCAASGYTFTSYVMHWVRQAPGKGLEWIGYINPYNDGTKYNEKFQGRVTISSDKSISTAYMELSSLRSEDTAMYYCARGTYYYGSRVFDYWGQGTLVTVSS
VL: DIVMTQSPATLSLSPGERATLSCRSSKSLLNSNGNTYLFWFQQKPGQSPQLLIYRMSNLASGVPDRFSGSGSGTEFTLTISSLEPEDFAVYYCMQHLEYPFTFGAGTKLEIK
notes: vs H1L1 (Kabat): VL Y34F; also called 4G7 H1_L1.80
B14: H1.191 / L1.162 (antibody, V domains shown)
VH: EVQLVESGGGLVKPGGSLKLSCAASGYTFTSYVMHWVRQAPGKGLEWIGYINPYNDGTEYNEKFQGRVTISSDKSISTAYMELSSLRSEDTAMYYCARGTYYYGTRVFDYWGQGTLVTVSS
VL: DIVMTQSPATLSLSPGERATLSCRSSKSLQNANANTYLYWFQQKPGQSPQLLIYRMSNLNSGVPDRFSGSGSGTEFTLTISSLEPEDFAVYYCMQHLEYPITFGAGTKLEIK
notes: vs H1L1 (Kabat): VH K58E/S100cT; VL L27cQ/S27eA/G29A/A55N/F96I; also called 4G7 H1.191_L1.162
B15: H1 / L1.68 (antibody, V domains shown)
VH: EVQLVESGGGLVKPGGSLKLSCAASGYTFTSYVMHWVRQAPGKGLEWIGYINPYNDGTKYNEKFQGRVTISSDKSISTAYMELSSLRSEDTAMYYCARGTYYYGSRVFDYWGQGTLVTVSS
VL: DIVMTQSPATLSLSPGERATLSCRSSKSLLNSNGNTYLYWFQQKPGQSPQLLIYRMSNLASGVPDRFSGSGSGTEFTLTISSLEPEDFAVYYCMQHLEYPNTFGAGTKLEIK
notes: vs H1L1 (Kabat): VL F96N; also called 4G7 H1_L1.68

Target: T1, human CD19
Test: binding affinity relative to the parent H1L1 mAb (Example 5); assay and format not named on the sheet

| Binder | Fold change binding |
| --- | --- |
| B1 | 1.5 fold |
| B2 | 3.87 fold |
| B3 | 1.54 fold |
| B4 | 5.32 fold |
| B5 | 1.58 fold |
| B6 | 1.8 fold |
| B7 | 3.74 fold |
| B8 | 1.73 fold |
| B9 | 3.18 fold |
| B10 | 3.97 fold |
| B11 | 1.58 fold |
| B12 | 5.57 fold |
| B13 | 1.62 fold |
| B14 | 3.35 fold |
| B15 | 2.12 fold |
